Data published in the supplement of paper PMC9170038.

Test system: MS2 coat protein
Experiment: apparent KD of MS2 coat protein; designed switch direction (-1 OFF switch, 1 ON switch): -1; higher = weaker reporter binding
In short: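 For each design, the apparent KD is the median over clusters of curves fitted to normalised cluster fluorescence. Clusters held RNA switches with common flanks, transcribed on Illumina chips by stalled E. coli RNA polymerase. These were titrated with SNAP-549-labelled MS2 coat protein, doubling from 0.7 or 1.5 nM to 3 µM, without input, with 200 uM small-molecule ligand, or with an oligonucleotide input.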

[1] = input ligand: microRNA oligo, concentration not stated
[2] = Eterna round: R95, input ligand: FMN 200 uM
[3] = Eterna round: R95, input ligand: none
[4] = Eterna round: R95, input ligand: microRNA oligo, concentration not stated

| Sequence | apparent KD of MS2 coat protein [1] [nM] | apparent KD of MS2 coat protein (input ligand: FMN 200 uM) [nM] | apparent KD of MS2 coat protein (input ligand: none) [nM] | apparent KD of MS2 coat protein [2] [nM] | apparent KD of MS2 coat protein [3] [nM] | apparent KD of MS2 coat protein [4] [nM] |
| --- | --- | --- | --- | --- | --- | --- |
| UUAUUAUAUGUAGGAUAUGCAUAUUAUUAUUAUGCAGAAGGACAUGAGGAUCACCCAUGUAUAUUAUUAUUAUAUAUUAUGUAU [Title] (Eterna round: R96, puzzle: Exclusion NG 1) | 27.5 |  |  |  |  |  |
| UUUAAGGCUGAGGAUAUGUGGUCCGCCAAAGACAUAGAAGGUAGCACAUGAGGAUCACCCAUGUCACGAAAAGU [Eternabot (L1) Solution 81] (Eterna round: R97, puzzle: Exclusion 6) |  | 54.3 | 52.7 |  |  |  |
| UGUUGUUGUUUCCGUUCUUACAUGAGGAUCACCCAUGUUUCUUGUCGUGCUCGCGUUGCUCGUCAGACUACCUGUUG [salish99_TOv1_r3_065] (puzzle: Sensor v3, turn-off variant 1) |  |  |  | 93.4 | 151 |  |
| UGGGAACGAGGAUAUCGAUGGUGGAACAUGAGGAUCACCCAUGUAUGAGAUAGUGUAGGGCGAGAAGGCGUUAAGU [JR_E5_Sub052] (puzzle: Exclusion 5) |  |  |  |  |  | 76.7 |
| AGUACUAACACGAGAGUGUUAGUACUAUAAGCUUGUGAAACAUGAGGAUCACCCAUGUCCUCAUAAGCUCGUCUUAU [Mat - Sensor v3 - Turn-off var 2 - D103] (puzzle: Sensor v3, turn-off variant 2) |  |  |  | 15.3 | 12.5 | 682 |
| AUCCAACAUGAGGAUCACCCAUGUCAGGAUAUCUAGCGGUGCGGCAACCCGGGCGCGCGGAGAAGGGACAACGG [EX1 B.23] (Eterna round: R97, puzzle: Exclusion 1) |  | 56.2 | 27.2 |  |  |  |
| UCCUCACAUGAGGAUCACCCAUGUCAGGAUAUAAGAAACGCGGCAGGCAGCCGCAAAAUUAGAAGGGACAUUAA [EX1 A.27] (Eterna round: R97, puzzle: Exclusion 1) |  | 47.5 | 18.2 |  |  |  |
| UAAUUUAGUGUGAGGAUAUGCUGGUCGAUAGAUCAGCAGAAGGCACAUGAGGAUCACCCAUGUAAUAUAUUAAA [Mat - Exclusion 4 - JL Mod - D35] (puzzle: Brourd's mod of Exclusion 4) |  |  |  | 218 | 60.2 | 62.4 |
| GAGAAGGUAGGAUAUACGAAUAAAUAGGGUAGUAAUAAGACACAUGAGGAUCACCCAUGUAGAAGGACCAAGAG [Mat - Exclusion 2 - Mod of my Tesla design - D38] (puzzle: Exclusion 2) |  |  |  | 37 | 21.1 | 19.3 |
| UUUGUUUAUGUAGGAUAUGCCUGGCGUGCCUUUGCAGAAGGACAUGAGGAUCACCCAUGUAACAUGAGGCUCACCCAUGUCGCA [salish99_ExNG1_r04_110] (Eterna round: R96, puzzle: Exclusion NG 1) | 453 | 682 | 645 |  |  |  |
| GGAGCUGGAGGAUAUACAAGAUCGAAAGAUCAAAGAUCCGUACAUGAGGAUCACCCAUGUAGAAGGCCAGCUCC (Eterna round: R97, puzzle: Exclusion 2) |  | 763 | 40.4 |  |  |  |
| GAAUAGCGAGGAUAUGCAAUGAAGGUAGUACGAUAUGGCUGACAUGAGGAUCACCCAUGUAGAAGGCGCUGAUC [EX2 #11] (Eterna round: R97, puzzle: Exclusion 2) |  | 116 | 65.8 |  |  |  |
| AAACCCUGAGGAUAUACAUAACAACAAAUCCUCACGUGCCAACAUGAGGAUCACCCAUGUAGAAGGCAGGCCCA [Bigegedi] (puzzle: Exclusion 2) |  |  |  | 48.4 | 15.3 | 15.8 |
| ACAUGAGGAUCACCCAUGUAAACGUAAUGGCUCAUGUAGAGUCAGGAUAUGCGUGGCGAACUCGCGCAGAAGGGACAAGACUGG [Deportation 22 - Jieux - Exclusion NG 3] (Eterna round: R96, puzzle: Exclusion NG 3) | 23.7 | 30.4 | 28.6 |  |  |  |
| AUUUAAUUUAAUAAGAUCACAUGAGGAUCACCCAUGUUAUAAUAGGAUAUCAGCUCGAUUAGAGCUGAGAAGGAUUAUAACAUG [ExNG3/9-A1] (Eterna round: R96, puzzle: Exclusion NG 3) | 20.1 | 35.3 | 28.8 |  |  |  |
| AGUAGAUCUACGCUUGCGUGGAUCUGCUAUGCAGGUGUCACAUGAGGAUCACCCAUGUCCUCAUUUGUUCGUCUUAU [JL turnoff v2 99.16] (puzzle: Sensor v3, turn-off variant 2) |  |  |  | 18.7 | 15.5 | 33.8 |

| Sequence | apparent KD of MS2 coat protein [1] [nM] | apparent KD of MS2 coat protein (input ligand: FMN 200 uM) [nM] | apparent KD of MS2 coat protein (input ligand: none) [nM] | apparent KD of MS2 coat protein [2] [nM] | apparent KD of MS2 coat protein [3] [nM] | apparent KD of MS2 coat protein [4] [nM] |
| --- | --- | --- | --- | --- | --- | --- |
| ACAUGUAUUGCAGGAUAUGGGACACAUGAGGAUCACCCAUGUGACUACAUGUCAUGCCACGGGUCUCAGAAGGGUAUGUACAUG [Ex NG2 #41] (Eterna round: R96, puzzle: Exclusion NG 2) | 12.1 | 23.3 | 14.9 |  |  |  |
| AUGUGCACGCUGCGGUCCUACAUGAGGAUCACCCAUGUGGUCUGGUGGCGUGGGUCGCCGGACUUGGCUCGUCUUGU [salish99_S_TOV1_R5_030] (Eterna round: R97, puzzle: Sensor, turn-off variant 1) |  | 18.6 | 18.7 |  |  |  |
| GACUGAGCAGGAUAUACAUGAGGAUCACCCAUGUUGGUUCAGCGACGAUAGUCGCAAUGUAGAAGGGCUCAGUC [E3/9-D2] (Eterna round: R97, puzzle: Exclusion 3) |  | 273 | 203 |  |  |  |
| AUAAAUUUAGAGGAUAUCUUAUAUGGGCGACCGAGAGAAGGCUGGACAUGAGGAUCACCCAUGUGCUUCGGUGA [Eternabot (L1) Solution 96] (Eterna round: R97, puzzle: Exclusion 6) |  | 67.5 | 75 |  |  |  |
| UUGAGGUAAGGAUAUAUUAGGAGCGAAGUUACUUGUUUUUUAUAGAAGGUACAUGAGGAUCACCCAUGUGAAUA [JR_Exclu4_Sub062] (puzzle: Exclusion 4) |  |  |  |  |  | 24.7 |
| UAUAGUUCAGGAUAUGAUGAAUUAAACAUGAGGAUCACCCAUGUAGAUCCUGAAUUAACAUCAGAAGGGAAUAUUU [JL-ex5-4.49 Brourd mod] (Eterna round: R97, puzzle: Exclusion 5) |  | 17.4 | 14.3 |  |  |  |
| AAGAAACAUGAGGAUCACCCAUGUGAGGAUAUGAUUAAGAAAAGAAAAGAAAGAAGACUCAGAAGGCACAAAGG [salish99-ex1_r3_069] (puzzle: Exclusion 1) |  |  |  | 55.5 | 45.5 | 80.9 |
| ACAUGAGGAUCACCCAUGUAAACAUGAUGGCUGAUGUAGAGCUAGGAUAUGAGUGAAUAUCUAUCUCAGAAGGAGCUUGACUGG [Deportation 46 - Jieux - Exclusion NG 3] (Eterna round: R96, puzzle: Exclusion NG 3) | 15.8 | 20 | 24.9 |  |  |  |
| UGUUGUUCAGGAUAUGAUGUAUAAUACAUGAGGAUCACCCAUGUAGAUCCUGAUUUGGCGUCAGAAGGGAAUGUUG [salish99_ex5_r4_106] (Eterna round: R97, puzzle: Exclusion 5) |  | 41 | 33.2 |  |  |  |
| UAUCCACAUGAGGAUCACCCAUGUCAGGAUAUGCACUAUGGGCCAAGUGGUCCAAGGAGCAGAAGGGACGAGAG [Eternabot (L2) Solution 25] (Eterna round: R97, puzzle: Exclusion 1) |  | 28.9 | 15.2 |  |  |  |
| AGGAUGCUAGGAUAUACAGGUUGAAAACUGAUCGGCGCCAGACAUGAGGAUCACCCAUGUAGAAGGAGCGAGGC [EX2 B.26] (Eterna round: R97, puzzle: Exclusion 2) |  | 36.1 | 38.7 |  |  |  |
| ACAAGCUUAAUCUGUAUGAACAUGAGGAUCACCCAUGUAUAAGGGAAUUCUUUUGGGUUUUUUAUUGCUCGUCUUAU [JR_STOV1_Sub021] (Eterna round: R97, puzzle: Sensor, turn-off variant 1) |  | 317 | 311 |  |  |  |
| AAUAACAGAGGAUAUACUAUUUUAUGUGUUUAUUGUUUUGAACAUGAGGAUCACCCAUGUAGAAGGCUGAUUAA [JMF 51] (puzzle: Exclusion 2) |  |  |  |  |  | 35.3 |
| GUUACACAUGAGGAUCACCCAUGUAAGGAUAUGCUGCGGUCGCGCUGACGUGACUGCAGCAGAAGGUACACAUG (puzzle: Exclusion 1) |  |  |  |  |  | 86.8 |
| ACUUGUGUUGAGGAUAUGCGCCGGCUCGCUGGCGCAGAAGGCGGCACAUGAGGAUCACCCAUGUCAGUUCGCGU [salish99_ex6_r004_002] (Eterna round: R97, puzzle: Exclusion 6) |  | 300 | 26.4 |  |  |  |
